In patent publication US20020102215A1:

Target: thiolated anti-CD34 antibody conjugated to gas-filled microbubbles encapsulated with DSPS and comprising DSPE-PEG2000-MAL
Assay: flow cytometry of anti-CD34-conjugated microbubbles after incubation with the FITC-labelled secondary antibody and washing

FITC-conjugated goat-anti-mouse antibody
% of microbubble population fluorescent: 98%
